Source: US20260231954A1, “PESTICIDAL ENZYMES FOR USE ON NEMATODES, INSECTS, AND MOLLUSKS” (priority 2023, published 2026)

How the values were obtained:
[1] = test system: soybean cyst nematode (SCN, Heterodera glycines); assay: Soybean cyst nematode reproduction on soybean after seed treatment, controlled environment (cysts per gram of root tissue or per plant); type: in vivo; settings: for % Comparison to Control (figure in parentheses): change vs base control; for Average cysts per g of root tissue: soybean 2830E3
[2] = test system: SCN juveniles (SCN HG type 1.2.5.7, race 2); assay: In-vitro plate assay of SCN juvenile viability (difference in percent death); type: in vivo; settings: Table 32, 40 μL per well of each treatment, water only 4%
Method: (§1) SCN eggs were obtained from SCN HG type 1.2.5.7, race 2. Eggs were rinsed 4 times with sterile water. Eggs were transferred to a 6-well plate and resuspended in 5 mL of 3 mM ZnSO4. The plate was sealed with parafilm, covered with aluminum foil to prevent light from entering the plate, and placed in a plate growth chamber at 25° C. and 80% relative humidity. After 6-7 days of incubation, an estimate of hatched SCN juveniles was obtained from the well to determine the overall number of juveniles per 10 μL. The concentration of the hatchery solution was adjusted until it consisted of 20-30 juveniles per 10 μL.
Potato dextrose agar media containing chloramphenicol and chlortetracycline was prepared and added to sterile twenty-four-well cell culture plates (1 mL per well). The plates were divided according to the pre-determined N-value for each treatment (N=12-24). Each treatment being tested was added to the agar surface within each well at a rate of 40 μL per well. Without allowing the treatments to dry, 10 μL of the prepared nematode mixture was added to the agar surface within each well.
To quantify the treatments' effects on nematode viability, the nematodes were examined under a dissecting microscope at 20× magnification. Initial (TO) values for the number of live juveniles, number of dead juveniles and total number of juveniles were recorded immediately after preparation of each well. The plates were then wrapped in parafilm around the open edge, encased in aluminum foil, and placed in secondary containment. The secondary containment was placed in a plant growth chamber at 25° C. and 80% relative humidity. At approximately 24 hours post addition of juveniles, the plates were evaluated, and the number of live juveniles, dead juveniles and total number of juveniles were recorded (T24).
The difference in percent death at T0 vs T24 was calculated by subtracting the percent dead at TO [(#dead juveniles/total #juveniles)×100] from the percent dead at T24 [(#dead juveniles/#total juveniles originally present)×100]. […] If the ANOVA indicated a significant difference existed among treatments, Tukey's HSD post hoc test was used to perform a pairwise contrast between each set of treatments. Different letters denote statistically significant results at P<0.05.
as §1, with “from” for “from SCN”, “rinsed four” for “rinsed 4”, “and 80-90%” for “and 80%”, “from each” for “from the”
Potato dextrose agar media containing chloramphenicol and chlortetracycline was prepared and added to sterile twenty-four-well cell culture plates (1 mL per well). The plates were divided according to the pre-determined N-value for each treatment (N=24). […]
To quantify the treatments' effects on nematode viability, the nematodes were examined under a dissecting microscope at 20× magnification. Initial (TO) values for the number of live juveniles, number of dead juveniles and total number of juveniles were recorded. […]

[3] = test system: Btk resistant Diamondback moth; assay: Diet-surface overlay (DSO) bioassay on Btk resistant Diamondback moth; type: in vivo, Plutella xylostella; settings: 7 days
Method: (§2) Diet-surface overlay bioassays are conducted with artificial diet mixes without antibiotics in 1.5 cm^2 cell bioassay trays(s). Artificial diets are commercially available from Southland Products Inc. Diets were prepared by dispersing 0.5 mL of molten diet to each 1.5 cm^2 cell. After solidification, 0.1 mL enzyme treatments were dispersed on top of diet in each cell and the tray was gently rocked in an orbital shaker to spread the liquid uniformly over the diet surface. Trays were placed under clean airflow until the surface of each cell was uniformly dried. One or two 16-cell sections were used per treatment (the number in larvae treated was 16 or 32).
(§3) One healthy first instar larva was placed into each treatment cell, each 16-cell section was covered with a re-sealable lid and incubated at 27° C. and light-dark period of 16:8 hrs. After 7 days, and according to the species, the number of individuals in the following developmental categories was recorded.
(§4) Diamondback moth (Plutella xylostella): Dead Larva (lack of movement), Larva Stage I (≤50% relative size), Larva Stage II (100% relative size, full size), Early Pupa (light green color), Late Pupa (light-dark brown color), and Adult.
(§5) Negative/untreated controls were treated with filtered water and positive controls were treated with lethal doses of Bacillus thuringiensis subsp. Kurstaki (Btk) spores at 1000 ppm.
However, both neutral proteases reduced the number of individuals reaching adult stage.
The effect of lipase (10× enzyme rate) and free lipases were tested on a Diamondback Moth Btk resistant strain. Free Lipases from Burkholderia cepacia (Bc) and Pseudomonas fluorescens (Pf) were tested along with Lipase (SEQ ID NO: 76) and the results are shown below in Table 45.

[4] = test system: Diamondback moth (Plutella xylostella); assay: Diet-surface overlay (DSO) bioassay on Diamondback moth; type: in vivo; settings: 7 days
Method: as §2, §3, §4, §5

[5] = Table 45, number of individuals, n = 32
[6] = Table 44, number of individuals, n = 16

B1: Pseudomonas sp. esterase (SEQ ID NO: 248): Pseudomonas sp. Esterase (protein, listed as Pseudomonas sp.)
chain: MTEPLILQPVKPADACVIWLHGLGADRYDFLPVAEALQEILLSTRFVLPQAPTRPVTINGGYAMPSWYDIKAMSPARAIDRDELEASADRIIELIEEQRSSGIDASRIFLAGFSQGGAVVYHTAFLKWQGPLGGVLALSTYAPTFSDELELSASQQRIPVLSLHGQFDNVVQNSMGRTAYEYLKAHGVTVTWQEYPMEHEVLPEEIRDIGTWLSERLR
% Comparison to Control (figure in parentheses) ([1]; Table 16): −10%
Average cysts per g of root tissue ([1]; Table 16, free enzyme or 4x concentrate seed treatment): 220.2 cysts per g of root tissue
Difference in Percent Death of Nematodes for 0 to 24 Hours [2]: 22%
Difference in Percent Death of Nematodes for 0 to 24 Hours ([2]; listed as Pseudomonas sp. esterase free enzyme (SEQ ID NO: 248)): 22%

B2: Lipase (SEQ ID NO: 76): Recombinant lipase from Bacillus thuringiensis; Bacillus thuringiensis Lipase (Lip1) (protein, listed as Bacillus thuringiensis)
chain: MRLMRRCVALLIVFFIMAPMISTNVRAGVVKELKTGFPDQEVFTPGEWFLGQKPANYDENKPPILFVQGRNGNADSWYGKTVYHDINDMYDYALKAGYQTVFIQLYDAAGKGSASQWDNGKLLAQKLEEIYNHFGKKVNIVAHSKGGIDTQAALVGYGANRFVGNVITLATPHHGSNLADLSYSWWAGWLASILGQKDDGTYSLQMGEMAKFRSTIDNNPAAKLNRYYTVTGTSWGPVFSALSMGGLYLSSYGSNDGLVNECSAKLPYGTHLFTDSRFDHDNIRKGSAVFARIEPYLRTANVPVPALVASSTSSNENIEQLNTTSNQSILGGELPQNQWIEQTVAVDKKAEGIVSILTASSDVEVQMISPKGKVYTNKDSVITTGEGESFFGGATIRTFKFDKMDVGEWKVKMMTKQSKDAYLVVSDYKTGAPFVLQMPTKVKANKSEYKLKKSPVAPEMKGDLSITVRVVNKEGKLVSEFNELQNVNNNTFTGALKNIKQPGVYNVTMDIKGMNKEGKSYSRTIVKSVYVEK
modifications: Lipase (Lip1 H192)
Effect on survival and development of Btk resistant Diamondback moth (in words) ([3]; DSO bioassay): clear delay of larva-pupa development
Dead Larva ([3]; Table 45, lipases, number of individuals, n = 32, Btk resistant strain per text): 1
Adult [3, 5]: 0
Early Pupa [3, 5]: 10
Larva Stage I [3, 5]: 9
Larva Stage II [3, 5]: 12
Late Pupa [3, 5]: 0
Effect on survival and development of Diamondback moth (in words) ([4]; DSO bioassay): delayed larva-pupa development
Dead Larva ([4]; Table 44, lipases, number of individuals, n = 16): 0
Adult [4, 6]: 0
Early Pupa [4, 6]: 3
Larva Stage I [4, 6]: 0
Larva Stage II [4, 6]: 0
Late Pupa [4, 6]: 13

B3: Bacillus thuringiensis Lipase 2 (SEQ ID NO: 251): Bacillus thuringiensis Lipase 2 (protein, listed as Bacillus thuringiensis)
chain: EVVKELGKGFPDTEVFTPGEWFLGQKPANYDENKPPILFVQGRNGNADSWYGKTVYHDINDMYDYALKAGYQTVFIQLYDAAGKGSASQWDNGKLLAQKLEEIYNYFGKKVNIVAHSKGGIDTQAALVEYGANRFVGNVITLATPHHGSNLADLSYSWWAGWLASILGQKDDGTYSLQIGEMAKFRSIIDNNPAAKLNRYYTATGTSWGPTFSALSMGGLYLSSYGSNDGLVNEWSAKLSYGTHLFTDSRFDHDNIRKGSAVFARIEPYLRTTNVGLPALVASSTSSNEDLEQLNTTSNQNILGGELPQNQWIEQSISVDKKAEGIVSVLTASSDVEVQMVSPKGKIYANKDSAITTGEGESFFNRATIRTFKFDKLEVGEWKIKMMAKQSKDAYLVVSDYKDDAPFVLRMPTKVKINKPEYKLKKSPVAPEMKGDLSITVRVVNKEGKLVSEFNELQNVNTNTFTGALKDIKQPGVYNVTMDIKGMNKEGKPYNRTIVKSVYVEK
% Comparison to Control (figure in parentheses) ([1]; Table 20): −43%
Average cysts per g of root tissue ([1]; Table 20, free enzyme seed treatment): 264.3 cysts per g of root tissue

B4: Collagenase B (SEQ ID NO: 208): Bacillus pumulis Collagenase B (ColB) (protein, listed as Bacillus pumulis, listed as Bacillus pumilus)
chain: IVNGKRVITKKPELLAPAGNLEKLKIAVHYGADAVFIGGQEYGLRSNADNFTIEEIAEGVEFAKKYGAKIYVTTNIFAHNENMDGLEDYLKALGDANVAGIIVADPLIIETCRRVAPNVEVHLSTQQSLSNWKAVQFWKEEGLDRVVLARETSALEIREMKEKVDIEIESFIHGAMCIAYSGRCVLSNHMTARDSNRGGCCQSCRWDYDLYQTDGANAVALYGEEDAPFAMSPKDLKLIESIPKMIEMGIDSLKIEGRMKSIHYVATVVSVYRKVIDAYCADPENFVIQKEWLEELDKCANRDTATAFFEGTPGYEEQMFGEHAKKTTYDFVGLVLNYDEDTQMVTLQQRNFFKKGDEVEFFGPEIENFTHTIETIWDEDGNELDAARHPLQIVKFKLDKKIYPSNMMRKGK
modifications: Collagenase B (ColB)
% Comparison to Control (figure in parentheses) ([1]; Table 22): −85%
Average cysts per g of root tissue ([1]; Table 22, free enzyme seed treatment): 70.9 cysts per g of root tissue
